Measured values published in patent publication US20250302939A1, “VACCINE FOR HUMAN T-LY[…]-1” (The United States of America, as represented by the …, priority 2022, published 2025).

Test system: MHC class-I
Test: Surface expression of MHC class I in transduced Jurkat T-cells (FACS)
Format: cell-based, human
Conditions: HIV nef as positive control
Protocol: FIGS. 5A-5E. (FIG. 5A) Amino acids alignment between Rex-orfI protein (p16) (SEQ ID NO: 10) and p12/p8 (SEQ ID NO: 11). Amino acids changes are underlined. Jurkat T-cells (FIG. 5B) or THP-1 cells (FIG. 5C) were transduced with lentiviral GFP vector expressing p12/p8 HA tag, or p16-HA tag or only GFP, as a control. Forty-eight hours post-transfection proteins were extracted and immunoblot with anti HA antibody was performed. Jurkat T-cells were transduced with GFP-lentiviruses expressing p16, Nef, or only GFP as a control. Cells were stained with HLA-ABC antibody (PE/Cy5 anti-human HLA-A,B,C clone w6/32 BioLegend) and analyzed by FACS. (FIG. 5D) Protein expression was verified by Immunoblot using an anti HA antibody and B-actin as control (cell signaling and appropriate secondary antibodies purchased from Santa Cruz Biotechnology) (FIG. 5E).
The cDNA synthesized from the rex-orf-I mRNA (FIG. 5A) encodes upon transfection a single protein band (p16) in Jurkat T-cells (FIG. 5B and FIG. 5C). In the human myeloid cell line THP-1 further processing of p16 results in two lower protein bands (FIGS. 5D and 5E).

B1: p16: HTLV-1C protein encoded by the rex-orf-I mRNA (SEQ ID NO: 10) (protein, listed as Homo sapiens)
chain: MPKTRRGPRRSQRKRPPTPWQPPPFSLQGLCLALQLSSITINPQLRHSFSSSTTLPCLLLPSSLFCLSPLALAALLFLQFSPGAVGGLLLRPPPAPSLLLSLPFQKLSNLFLLLFFPLSFSLSLLLGPSPPITMRFPARWRFLFRRAPSQPA
effect on surface expression of MHC class I: does not affect surface expression of MHC-class I
